Assay: Membrane permeance of probe peptides in living cells
Type: cell-based
Description: The disclosed tag sets preferentially label cell surfaces and are membrane impermeant in living cells, which is of particular use in labeling cell-surface receptors (i.e., TfR1 and EGFR) and more particularly of use in monitoring trafficking and endocytosis.
The disclosed methods were tested in transfected human osteosarcoma cells (U-2 OS). A pDisplay vector was used to target CoilZ-EGFP and untagged EGFP to the cell surface. This construct includes a C-terminal fusion to the transmembrane domain of the platelet derived growth factor receptor. As expected, both CoilZ-EGFP and untagged EGFP localized to the cell surface, and green fluorescence was observed within 24 h of transfection. Then the cells were blocked with 6% BSA and 10% FBS for 30 minutes at 37° C. and then contacted with an AF647-conjugated CoilY probe (CoilY-AF647), 30 min at 4° C. Cells were fixed before imaging by confocal fluorescence microscopy. The probe peptides are membrane impermeant; only cell-surface EGFP was accessible to CoilY-AF647 for labeling. Colocalization of green fluorescent CoilZ-EGFP with CoilY-AF647 was observed.
VIP probe peptides are live cell impermeant. This makes them ideal for imaging and tracking receptor internalization. […]
VIPER labeling was compared to that of standard fluorescence labeling techniques, namely a fluorescent protein fusion to mCherry and antibody labeling.

For “CoilR: coiled-coil peptide, SEQ ID NO: 1, designed from RR12EE345L (LEIRAAFLRQRNTALRTEVAELEQEVQRLENEVSQYETRYGPL)”, the cell membrane permeance was “cell-membrane impermeance”.
